Experimental data published in publication PMC4234289, “The LexA regulated genes of the Clostridium difficile” (BMC Microbiology, 2014).

Molecular target: T1, C. difficile RecA, activated (RecA*) (Clostridium difficile 630, UniProt Q18BJ4 1-348)
T1 construct: Protein RecA (recombinase A) of Clostridium difficile strain 630; also called RecA* (CD); source: E. coli BL21 (DE3), purified (Ni-NTA, PD10 desalting)
T1 sequence (looked up): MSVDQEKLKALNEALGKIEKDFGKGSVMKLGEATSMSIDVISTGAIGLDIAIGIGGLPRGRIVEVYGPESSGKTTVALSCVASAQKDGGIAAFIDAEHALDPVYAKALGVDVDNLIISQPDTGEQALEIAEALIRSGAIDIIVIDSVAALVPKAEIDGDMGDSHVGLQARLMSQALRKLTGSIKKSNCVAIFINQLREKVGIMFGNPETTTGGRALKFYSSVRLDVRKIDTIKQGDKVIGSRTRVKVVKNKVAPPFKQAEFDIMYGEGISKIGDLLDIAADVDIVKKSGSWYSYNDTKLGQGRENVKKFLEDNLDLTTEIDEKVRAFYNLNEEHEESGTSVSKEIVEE
Assay: SPR; Biacore X, 25°C; RecA* immobilised on the chip (~2000 response units); LexA (2.6 μM) incubated with non-specific 22-bp DNA (recA operator with six nucleotides changed, 1.4-8.1 μM) passed over at 10 μl/min for 60 s; 20 mM NaH2PO4 pH 7.4, 150 mM NaCl, 2 mM MgCl2, 1 mM DTT, 1 mM ATP, 0.005% P20
Settings: both partners purified

B1: C. difficile LexA repressor (natural protein, Clostridium difficile 630, UniProt Q187P1 1-211, looked up)
chain: MYLDLTEKQVLILEFIKSQIILKGYPPAVREICTAVGLRSTSTVHSHLNKLEKLGYIRKDPTKPRAIEVLERSKVNDVSGANQEIIELPLVGQITAGEPILAQQNIEEYIPFPASLVKGSNNFVLRVKGESMINAGILDEDYVVVDKKNTALNSQIVVALINGESATVKRFFKEGNLIRLQPENDFMEPIMLNDSEVEIVGIVTGVFRVIK
notes: LexA repressor of Clostridium difficile strain 630; In the SPR with RecA* LexA was pre-incubated with 22-bp DNA; also called LexA (CD); DinR; source: E. coli BL21 (DE3), purified (Ni-NTA, PD10 desalting)
Does B1 bind?
Result: binds
